What all share (experiment): fluorescence polarisation; fluorescence anisotropy, equilibrium binding of Nrd1 CID variants to FAM-labelled NIM peptides; 10°C, 50 mM Na2HPO4, 100 mM NaCl, pH 8; 1:1 model with non-specific binding (DynaFit)
What all share (details): both partners purified

In one assay the target is T1, Nrd1 CID R133A (S. cerevisiae, UniProt P53617 1-153, R133A).
T1 construct: the construct for anisotropy is made as described previously (Kubicek et al, 2012); also called CID(R133A)-His6; source: recombinant, produced and purified as described previously (Kubicek et al, 2012); plasmid with T7 promoter
T1 sequence (looked up): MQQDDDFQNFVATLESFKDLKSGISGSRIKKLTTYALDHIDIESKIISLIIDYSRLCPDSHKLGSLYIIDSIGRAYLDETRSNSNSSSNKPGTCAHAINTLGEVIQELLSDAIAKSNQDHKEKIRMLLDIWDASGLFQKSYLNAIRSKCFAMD

A further assay deals with T2, Nrd1 CID R133G (S. cerevisiae, UniProt P53617 1-153, R133G).
T2 construct: the construct for anisotropy is made as described previously (Kubicek et al, 2012); also called CID(R133G)-His6; source: recombinant, produced and purified as described previously (Kubicek et al, 2012); plasmid made with QuikChange, T7 promoter
T2 sequence (looked up): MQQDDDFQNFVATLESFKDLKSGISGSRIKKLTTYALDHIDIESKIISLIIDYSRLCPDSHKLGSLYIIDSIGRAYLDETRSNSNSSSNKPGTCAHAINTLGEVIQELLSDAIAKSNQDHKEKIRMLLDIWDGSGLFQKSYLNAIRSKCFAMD

In a further assay the target is T3, Nrd1 CID R28D (S. cerevisiae, UniProt P53617 1-153, R28D).
T3 construct: the construct for anisotropy is made as described previously (Kubicek et al, 2012); also called CID(R28D)-His6; source: recombinant, produced and purified as described previously (Kubicek et al, 2012); plasmid with T7 promoter
T3 sequence (looked up): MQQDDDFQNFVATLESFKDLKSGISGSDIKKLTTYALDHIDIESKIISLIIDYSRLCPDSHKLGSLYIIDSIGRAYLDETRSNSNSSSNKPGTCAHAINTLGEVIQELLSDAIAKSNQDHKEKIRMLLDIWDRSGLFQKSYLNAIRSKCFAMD

Ends that are not written are not given here. FAM = 5,6-carboxyfluorescein

B1: Sen1 NIM peptide (Sen1 aa 2,052-2,063) (peptide, UniProt Q00416 2052-2063, looked up)
peptide: {FAM}-DDDEDDYTPSIS
notes: Sen1, S. cerevisiae, fragment harbouring aa 2,052-2,063; source: synthetic peptide
For B1, the values for the Kd with Nrd1 CID R133A, with Nrd1 CID R133G and with Nrd1 CID R28D were 1.8 ± 0.08 µM, 1.6 ± 0.04 µM and 78.2 ± 11.5 µM, respectively.

Source of the values: article PMC7110113, “Termination of non‐coding transcription in yeast relies on both an RNA Pol II CTD interaction domain and a CTD‐mimicking region in Sen1” (The EMBO Journal, 2020).
